Legend:
Assay type in all cases: cell-based
[1] = system: Friend murine erythroleukemia (MEL) cell line; test: MEL cell cytodifferentiation and hemoglobin content
Protocol: The specificity of this effect was verified by the application of a neutralizing, anti-MIF mAb.
Erythroid Progenitor Cell Lines. The Friend murine erythroleukemia (MEL) cell line was cultured in Dulbecco's modified Eagle's medium supplemented with 10% FBS. Differentiation was induced with dimethyl sulfoxide differentiation medium for 4 days as described (Terada et al. 1977. Proc. Natl. Acad. Sci. USA 74:248-252). Hemoglobin synthesis was assessed by cyto-centrifugation onto glass slides followed by staining with benzidine (Worthington), and by the hemoglobin kit from Sigma.

erythroid progenitors = test: Cytotoxicity by Trypan blue exclusion
Protocol: (§1) The human K562 progenitor cell line (ATCC, CCL-243) was cultured in RPMI/10% FBS supplemented with penicillin and streptomycin. For differentiation, sodium butyrate (AldRick, Milwaukee, Wis.) was added in the medium (Witt et al. 2000. Blood 95:2391-2396). Terminal erythropoietic differentiation was measured as described by McGukin et al. (McGuckin et al. 2003. European Journal of Haematology 70:106-114) and positive cells enumerated after staining with 2,7-diaminofluorene (Sigma, St. Louis, Mo.). To quantify hemoglobin synthesis, the cells were centrifuged and washed in PBS, and the cell pellet resuspended in lysis buffer (100 mM potassium phosphate pH 7.8, 0.2% Triton X-100) before disruption by aspiration through a 21-gauge needle. After microcentrifugation, the supernatant was collected and the hemoglobin concentration was determined using the hemoglobin kit from Sigma. Cell viability was assessed by trypan blue dye exclusion and found to be equivalent (85-90% viability) between all samples studied.

[2] = system: murine bone marrow progenitor cultures; test: BFU-E and CFU-E erythropoietin-dependent progenitor colony assays; settings: 10-100 ng/ml MIF, 1-20 ng/ml TNFα, or 10-100 U/ml IFNγ
Protocol: Bone marrow cells were harvested, plated in a methylcellulose-based medium, and colony numbers scored after the addition of murine cytokines. Individual assays were performed in duplicate, and the data shown is a compilation of 3-6 independently performed experiments. % inhibition of colony formation is calculated with reference to a cytokine-minus control. All values shown are the mean±SD and are significant when compared to wells with no cytokine addition (P<0.05). CFU-E: colony forming unit—erythroid; BFU-E: burst-forming unit—erythroid.
The two inflammatory cytokines, TNFα and IFNγ, were also studied. TNFα and IFNγ are produced as a consequence of macrophage and T cell activation (McDevitt et al. 2004. Curr Hematol Rep 3:97-106). The appearance of BFU-E and CFU-E were quantified after culture with these cytokines, applied either alone or in combination.
BFU-E and CFU-E Progenitor Cell Assays. The progenitor cell (colony) assays were performed according to the standardized methods described previously (Martiney et al. 2000. Infection and Immunity 68:2259-2267) and protocols from StemCell Technologies (Vancouver; BC, Canada). Briefly, washed murine bone marrow cells were plated in sterile 35-mm dishes containing a methylcellulose-based medium and growth factors. The total number of bone marrow cells plated in duplicate culture dishes were as follows: 2×10^5 for CFU-E and 5×10^5 for BFU-E. MethoCult™ M3334 was utilized for the CFU-E and BFU-E colony assays. The media for CFU-E and BFU-E was volume adjusted by adding 1 part Isocove's MDM to 9 parts MethoCult™ M3334 to give final concentrations of the following components: 15% fetal bovine serum, 1% BSA, […] transferrin, […] insulin, 1% methylcellulose, 10^−4 M 2-mercaptoethanol, 2 mM L-glutamine and 3 units/ml erythropoietin. Each assay of different bone marrow progenitor cells was performed independently 3-6 times.

CD44 = CD44 phospho-serine sandwich ELISA; settings: MIF 100 ng/ml, 10 mins
Protocol: FIGS. 12A-12E show the phosphoserine content of CD74 and CD44 measured by ELISA. […] The ELISA values represent the mean±SD of triplicate measurements. Experiments were replicated twice. *P<0.02 versus corresponding control (Student's T test, two-tailed). […] Cell lysates were prepared and probed for PKA and PKC using phospho-specific, and total anti-PKA and anti-PKC antibodies.
Ser325 is constitutively phosphorylated in resting cells, but undergoes de-phosphorylation in response to PKC activating stimuli such as phorbol esters. […] The effect of MIF-stimulation CD44 phosphorylation was analyzed in the COS-7 and MEF cell lines by sandwich ELISA using an anti-CD44 capture antibody to quantify CD44 phospho-serine residues (Perez et al. (2003). Nature Immunol. 4:1083-92). […]
The serine phosphorylation of CD74 and CD44 was quantified by specific sandwich ELISA (Perez et al. (2003). Nature Immunol 4:1083-92). […] After several washes (0.5% Tween-20 in PBS), 0.2 μg/ml anti-phospho-serine antibody (Hypromatrix) conjugated with horseradish peroxidase was added, and immunoreactivity measured by the TMB reagent (DakoCytomation) and the data analyzed with SpectraMax Plus (Molecular Devices). […]

[3] = system: human K562 progenitor cell line; test: K562 terminal erythropoietic differentiation (DAF stain) and hemoglobin content
Protocol: The neutralizing anti-MIF mAb was added at 100 μg/ml. DAF positive cells were enumerated and expressed as fold-change over total, input cells. FIG. 2B: cellular hemoglobin content of cultured K562 progenitor cells. […] Each value represents the mean±SD of at least three different experiments. *P<0.01 versus corresponding controls.
as §1

B1: MIF: macrophage migration inhibitory factor; recombinant mouse or human MIF purified essentially free of endotoxin (protein)
chain: PMFIVNTNVPRASVPDGFLSELTQQLAQATGKPPQYIAVHVVPDQLMAFGGSSEPCALCSLHSIGKIGGAQNRSYSKLLCGLLAERLRISPDRVYINYYDMNAANVGWNNSTFA
- reduction of hemoglobin content ([1]; 20 ng/ml): 12%
- reduction of hemoglobin content ([1]; 100 ng/ml): 20%
- cytodifferentiation response (benzidine staining) ([1]; 200 ng/ml): decreased the cytodifferentiation response
- cytotoxic effects (erythroid progenitors): Neither MIF nor anti-MIF were found to exert cytotoxic effects
- BFU-E and CFU-E colony formation [2]: dose-dependently inhibited
- net content of CD44 serine phosphorylation (CD44): did not change
- terminal erythropoietic differentiation (DAF stain) ([3]; MIF 200 ng/ml for 96 hrs): inhibited the terminal erythropoietic differentiation
- hemoglobin production ([3]; cellular hemoglobin content of cultured K562 progenitor cells): inhibition of cytodifferentiation and hemoglobin production

Reference: patent US20100143379A1 (priority 2005, published 2010)
